Laboratory results taken from patent US20110020218A1 (PIERRE FABRE MEDICAMENT, published 2011).
Numbering of substitutions follows the chain as printed. Names and notes keep the numbering of the source.

T1: CXCR2:YFP fusion protein (UniProt P25025 1-360)
T1 construct: whole, on cells; Transiently expressed in HEK293 cells for BRET; not shown: Yellow fluorescent protein (EYFP)
T1 sequence (looked up): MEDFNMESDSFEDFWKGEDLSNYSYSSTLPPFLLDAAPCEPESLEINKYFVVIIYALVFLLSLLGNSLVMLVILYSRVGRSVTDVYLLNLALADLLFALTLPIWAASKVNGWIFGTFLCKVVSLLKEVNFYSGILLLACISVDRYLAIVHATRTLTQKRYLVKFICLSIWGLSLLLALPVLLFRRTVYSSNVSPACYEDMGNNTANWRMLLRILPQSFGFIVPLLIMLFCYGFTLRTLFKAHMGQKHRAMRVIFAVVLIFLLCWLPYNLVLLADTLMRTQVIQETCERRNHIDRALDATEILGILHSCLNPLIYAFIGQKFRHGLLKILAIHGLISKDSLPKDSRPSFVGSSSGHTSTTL

B1: CXCR4/Rluc fusion protein (receptor, UniProt P61073 1-352, looked up)
chain: MEGISIYTSDNYTEEMGSGDYDSMKEPCFREENANFNKIFLPTIYSIIFLTGIVGNGLVILVMGYQKKLRSMTDKYRLHLSVADLLFVITLPFWAVDAVANWYFGNFLCKAVHVIYTVNLYSSVLILAFISLDRYLAIVHATNSQRPRKLLAEKVVYVGVWIPALLLTIPDFIFANVSEADDRYICDRFYPNDLWVVVFQFQHIMVGLILPGIVILSCYCIIISKLSHSKGHQKRKALKTTVILILAFFACWLPYYIGISIDSFILLEIIKQGCEFENTVHKWISITEALAFFHCCLNPILYAFLGAKFKTSAQHALTSVSRGSSLKILSKGKRGGHSSVSTESESSSFHSS
notes: whole, on cells; Transiently expressed in HEK293 cells for BRET; also called CXCR4 tagged with luciferase; not shown: Renilla reniformis luciferase (Rluc)
B2: anti-CXCR4 chimeric Mab c414H5 (antibody, human IgG1, kappa, V domains shown)
VH: EVKLVESGGGLVQPGGSLRLSCTTSGFTFTDYYMSWVRQSPGKALEWLTFIRNKANGYTTEYSASVKGRFTISRDNSQSILYLQMNTLRAEDSATYYCARDIPGFAYWGQGTLVTVSA
VL: DIVMSQSPSSLAVSAGEKVTMSCKSSQSLYNSRTRKNYLAWYQQKPGQSPKLLIYWASTRESGVPDRFTGSGSGTDFTLTITSVQAEDLAVFYCKQSYNLRTFGGGTKLEIKR
notes: they may be whole chains; also called chimeric 414H5
B3: anti-CXCR4 chimeric Mab c515H7 (antibody, human IgG1, kappa, V domains shown)
VH: EVNLVESGGGLVQPGGSLRLSCATSGFTFTDNYMSWVRQPPGKALEWLGFIRNKANGYTTDYSASVRGRFTISRDNSQSILYLQMNALRAEDSATYYCARDVGSNYFDYWGQGTTLTVSS
VL: DIVMSQSPSSLAVSAGEKVTMSCKSSQSLFNSRTRKNYLAWYQQKPGQSPKLLIYWASARDSGVPARFTGSGSETYFTLTISRVQAEDLAVYYCMQSFNLRTFGGGTKLEIKR
notes: they may be whole chains; also called chimeric 515H7
B4: hz515H7 VH1 VL2 (antibody, human IgG1, kappa)
heavy: not shown
light: DIVMTQSPSSLAVSLGERATMSCKSSQSLFNSRTRKNYLAWYQQKPGQSPKLLIYWASARDSGVPARFTGSGSETYFTLTISRVQAEDLAVYYCMQSFNLRTFGQGTKVEIKRTVAAPSVFIFPPSDEQLKSGTASVVCLLNNFYPREAKVQWKVDNALQSGNSQESVTEQDSKDSTYSLSSTLTLSKADYEKHKVYACEVTHQGLSSPVTKSFNRGEC
notes: human IgG1/kappa format; also called VH variant 1 combined with variant 2 of VL
B5: hz515H7 VH1 combined with the chimeric VL (cVL) (antibody, human IgG1, kappa)
heavy: not shown
VL: B4 light with T5S, L15A, R18K, A19V, Q105G, V109L
notes: Humanized VH variant with the chimeric (murine VL, human Ckappa) light chain of c515H7; IgG1/kappa; also called VH1 cVL
B6: humanized antibody Hz515H7 VH1 VL1 (antibody, human IgG1, kappa, V domains shown)
VH: EVQLVESGGGLVQPGRSLRLSCTASGFTFTDNYMSWVRQAPGKGLEWVGFIRNKANGYTTEYAASVKGRFTISRDDSKSIAYLQMNSLKTEDTAVYYCARDVGSNYFDYWGQGTLVTVSS
VL: DIVMTQSPDSLAVSLGERATINCKSSQSLFNSRTRKNYLAWYQQKPGQPPKLLIYWASTRESGVPDRFSGSGSGTDFTLTISSLQAEDVAVYYCMQSFNLRTFGQGTKVEIKR
notes: Human IgG1/kappa format; no back mutations; also called 515H7 VH variant 1 VL variant 1
B7: anti-CXCR4 Mab 414H5 (antibody, V domains shown)
VH: B2 VH
VL: DIVMSQSPSSLAVSAGEKVTMSCKSSQSLYNSRTRKNYLAWYQQKPGQSPKLLIYWASTRESGVPDRFTGSGSGTDFTLTITSVQAEDLAVFYCKQSYNLRTFGGGTKLEIK
B8: humanized antibody Hz515H7 VH1 D76N VL2 (antibody, human IgG1, kappa, V domains shown)
VH: B6 VH with D76N
VL: B3 VL with S5T, A15L, K18R, V19A, G105Q, L109V
B9: humanized antibody Hz515H7 VH1 D76N VL2.1 (antibody, human IgG1, kappa, V domains shown)
VH: B6 VH with D76N
VL: B6 VL with I21M, N22S, T59A, E61D, G74E, D76Y, S83R, L84V, V89L
B10: humanized antibody Hz515H7 VH1 D76N VL2.2 (antibody, human IgG1, kappa, V domains shown)
VH: B6 VH with D76N
VL: B6 VL with I21M, N22S, T59A, E61D, S69T, G74E, D76Y, S83R, L84V
B11: humanized antibody Hz515H7 VH1 D76N VL2.3 (antibody, human IgG1, kappa, V domains shown)
VH: B6 VH with D76N
VL: B6 VL with I21M, N22S, T59A, E61D, S69T, G74E, D76Y, V89L
B12: anti-CXCR4 Mab 515H7 (antibody, V domains shown)
VH: B3 VH
VL: DIVMSQSPSSLAVSAGEKVTMSCKSSQSLFNSRTRKNYLAWYQQKPGQSPKLLIYWASARDSGVPARFTGSGSETYFTLTISRVQAEDLAVYYCMQSFNLRTFGGGTKLEIK

target: T1, CXCR2:YFP fusion protein; assay: BRET in transiently transfected HEK293 cells
Method: The day after, cells were distributed in poly-lysine pre-coated white 96 MW plates in complete culture medium [DMEM supplemented with 10% FBS]. Cells were first cultivated at 37° C. with CO₂ 5% in order to allow cell attachment to the plate. Cells were then starved with 200 μl DMEM/well overnight. Immediately prior to the BRET experiment, DMEM was removed and cells were quickly washed with PBS. […] After incubation for further 10 minutes at 37° C., light-emission acquisition at 485 nm and 530 nm was initiated using the Mithras LB940 multilabel reader (Berthold) (1 s/wavelength/well repeated 15 times at room temperature).
Calculation of BRET ratio was performed as previously described (Angers et al., 2000): [(emission_{530 nm})−(emission_{485 nm})×Cf]/(emission_{485 nm}), where Cf=(emission_{530 nm})/(emission_{485 nm}) for cells expressing the Rluc fusion protein alone under the same experimental conditions. […] For sake of readability, results are expressed in milliBRET units (mBU); mBU corresponds to the BRET ratio multiplied by 1000.

Binder | binding result
B1 | binds

target: T2, human CXCR4 receptor (wild type) (human, UniProt P61073 1-352); assay: SPA competition, Mab 100 nM, labelled competitor [125I]SDF-1 (1 nM), CHO-K1/human CXCR4 membranes
T2 construct: whole, on cells; Expressed on transfected NIH3T3 / CHO-K1 cells (or their membranes) or endogenous on human cancer cell lines; also called hCXCR4; wild-type CXCR4 receptor
Method: CHO-K1 cells, stably and constitutively expressing human CXCR4 receptor were obtained upon transfection of naïve CHO-K¹ cells (ATCC CCL-61) with a mammalian expression vector carrying the whole coding sequence of human CXCR4 receptor (RefSeq NM_{—}003467). Cells were propagated in complete culture medium [DMEM-Ham's F12 supplemented with 5% fetal calf serum (FCS) and 500 μg/ml of geneticin]. Radioligand binding experiments were conducted on cell membranes obtained upon mechanical scrapping of CHO/CXCR4 cells in lysis buffer [Hepes 20 mM, pH 7.4, NaCl 150 mM] followed by centrifugation (10000 g, 15 min). […] Upon centrifugation [1000 g for 10 min.] radioactive counts were measured in a scintillation counter (TopCount, Perkin Elmer).

Binder | % inhibition of [125I]SDF-1 [%]
B2 | 21
B3 | 55

target: T2, human CXCR4 receptor (wild type); assay: flow cytometry competition with biotinylated murine 515H7 on CXCR4 transfected NIH3T3 cells

Binder | binding result
B4 | binds
B5 | binds
B6 | binds

target: T2, human CXCR4 receptor (wild type); assay: cell-based or functional assay

Binder | IC50, [35S]GTPγS binding, Hela cells, SDF-1 10 nM [nM] | IC50, [35S]GTPγS binding, NIH3T3/CXCR4 cells, SDF-1 10 nM [nM] | inhibition of SDF-1-induced BRET increase (CXCR4 homo-dimers) [%] | inhibition of SDF-1-induced β-arrestin recruitment (BRET) [%] | % of inhibition of [35S]GTPγS binding stimulated by SDF-1 (100 nM) [%] | IC50, [35S]GTPγS binding, NIH3T3/CXCR4 cells [nM] | percentage of inhibition of SDF-1-induced BRET increase (CXCR4 homo-dimers) [%] | decrease in SDF-1-induced U937 cells migration [%]
B7 | 0.5 | 1.6 | 63 | ~20 | – | – | – | –
B8 | – | – | – | ~94 | 86 | 3.86 | ~88 | –
B9 | – | – | – | ~81 | 69 | 4.05 | ~65 | –
B10 | – | – | – | ~82 | 66 | 5.19 | ~33 | –
B11 | – | – | – | ~71 | 58 | 8.5 | ~21 | –
B12 | 0.2 | 1.9 | 69 | 95 | 71 | – | – | > 80
B2 | 0.3 | 1.1 | 75 | ~63 | – | – | – | ~50
B3 | 0.6 | 1.5 | 96 | 93 | 71 | – | – | > 80
